Source: US20120102593

Target: histone H4 (rice, extracted from leaves)

B1: histone deacetylase OsHDT1 (protein)
chain: MEFWGLEVKPGQTVKCEPEDERFLHLSQAALGESKKGSDNAVMYVKTDDQKLVIGTLSADKFPQIQFDLVFDKEFELSHTSKTASVFFSGYKVSQPAEEDEMDFDSEEVEDEEEEEKIIPAPRANGKVEGKENEQKKQGKTDSSASKSKAAVNDDDDDDDSAEDDSQDEDLSPEDDDDDSSEDDSSEDDEDESDEEDTPKKPETGKRKVAEIVLKTPSSDKKAKIATPSGQKTGDKKGVHVATPHPAKQASKTPVNDKSKEKSPKSGGGSISCKSCSKTFNSEMALQSHSKAKHPAK
Western blotting of histone extracted from transgenic and wild-type parent and hybrid OsHDT1 plants, using commercial antibodies against histone modifications: HDT1 was capable of deacetylating histone and as such is a histone deacetylase mainly acting at H4K16 site
